In the domain aggregation screens of Martell et al. (2025):

Assay: soluble fraction after stress (log2 fold change); higher = more stays soluble; pooled small domains, quantitative proteomics
Details: stress: 50 degC
Method in brief: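 Pooled custom libraries of small protein domains were measured in a high-throughput format, with quantitative proteomics as the read-out. Each library was stressed at 50°C. Aggregation propensity is given as the base-two logarithm of the fold change in how much of each protein stays soluble after the stress. Higher values mean a larger share of the protein remains in solution.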

In order of falling “soluble fraction (log2)” value:
1. HMKVNQFEVEGNQRYSTEEIAKASGVSKGDNLFLVNKTETARKLLDELAYVRSVNIKRKLPDTLVITVAE  0.399
2. HMAQNILPGQKNAIKSLATSAGFSQQELDSYLSQNYGKTLNNLSQKEGASLISGLQDGSIKKP  0.352
3. HMTKQEYLNQLKNELVKQGVADAEDVVTEYEQHFAFKLADGFGEEEIAKKLGDPAAIASQFVG  0.293
4. HMREPDPELTASIKSMAESNDQSERLVALAQLSEQRAVDPEVADQILLIALLDEDPIIRGQAVYA  0.264
5. HMREYRITAEEGHPRIDVFLAGRPEIGLSRSRIQALIDEGQVTLNGAMPKARQAVNPGDVIVVRVPDPE  0.263
6. HMKYNGDRPVFNDDVAWAKWMLENPAKITSHDKENLSSMLKKPEVVMLFEAEDLSVPDLRTLAKE  0.236
7. HMSKETTYEVLSLKGDEWQTDTIYSDRDEAIEAARNLHGDPHIDGAKVISEVYDDKTGGSKETTIFNT  0.226
8. HMVDGTPALTDLKKVSKPGRRHYTGSQEIPRVLNGLGISIVSTSKGIMTGAQARRQKVGGELLAFV  0.16
9. HMKGSIFLDEATKMVDNSALKSLNTFLEEYARETNNQIFLISHQETPAEVTQIKLKKVGGETSYE  0.124
10. HMNKRKQRINDLMDLIREQPALSIKNLAEMLNVSEMTIRRDMAYLKSNNLLNRAHGMNFLNS  0.0812
11. HMQSVSANSVQKQLADIIDGEDKTHPLSDRELTEKLVAQGVQISRRTVAKYREAMGIPGASGRKQ  0.072
12. HMPPENVSVRREQIAEDKKTVYNVWVTKGNKTVLYSKVVYAWGGVYFFRDLNTSISENMYKQADAGLVN  0.0555
13. HMAPPIQQQVESLMNSFAKIGVTVPMLESRLQHAMSAVTANELVMLRKIGASIRDGFATVAEQFPA  0.0539
14. HMGPVRDLGLLESAAHRPTTALWGRDVYATIEKKAAALLDSLVRDRPLADGNKRLGWLAALV  0.0437
15. HMQGVNLTETEKNFIAQVLSPLLKQGQSLYQIRTNHPEIKLSVKTLYTYIESGIFKESGINNFSLRRQ  0.0431
16. HMAPGVHVEALLPYTAGSLVSQIREYGNVDAVEYRDTGILLQADVDERLAAQIMDQALEDPV  0.0408
17. HMQITSTDEIEKMIDELIAANPEQTKQYQNGNHKVAGWFVGQMMKASKGKANPQMVNNLLQKKL  0.0271
18. HMEPMLEIFDAKIDLADVLAVESGLVRLRGGAEVTSPRVDVDAGARLELDSGARLNVERLSY  0.0258
19. HMAAAQILRAAVLRVPAEETMRFVTETPELRRYLGASLGPTAAIVRPGQEQNLAAALQSHGILVEFDE  0.0258
20. HMTRAETPMAFIRAMVEAYTERGLDPNQALRKAQITPSQLKSTNARVTTLQMEWMSETAMREL  0.0088
21. HMPADHYEVLGIARDADAAEVKRAYRRLARESHPDANHGDSGAEVRFKAVSAAYEVLSDPERRARYDRFGH  -0.00211
22. HMGYSDEIGEFIKKLRTENHLTQKEFADKYGVTYQAVSKWENGKNLPDMSLIKQMSEDFNIGIDELLDGEK  -0.00754
23. HMSKPIYSELLREIRSGDVKELTLIPQRREVLVEYSDGRKATVSILANDQQVLRTAESAGVPLTVK  -0.0265
24. HMSQIAENNQKYVGTIQKVLVEGTSKNNDDMLTGRTDSNKVVIFEGDKKLIGNMVELKIVSEHMWYLKGEL  -0.0348
25. HMVSDTGAIEAIVAQVLADNPKLVEGYLATPEDKRGKAIGPFIGLTRKAAAGVNPQVVMDVLKKKLSEL  -0.0515
26. HMSNTVEDLIDDIGTVTKDSKDKIDAARKAYDGLTEDQKKLVPDSVLKTLTDAEAAYAKLTK  -0.0576
27. HMQATDEEIENFTSSAITAYKLTKEEGYIISMRDMKPIMEIVKTEYPMANGKVVSKVMNNYING  -0.0668
28. HMHPRDREENKYLLLRGERIYEESIGEKRLYVEAALHKYEKALSSYDTGLIDEAKEEFKKFLEEIEEA  -0.0765
29. HMTDLNDTQIKILELLSADASLSAAKMAGQLGIAGRNVEANIKKLKEKGILIRHGSPKSGYWEIVN  -0.0982
30. HMPELSITDADIIVAGGRGMGSAENFGLIRELAGLLGAAVGASRVVVDAEWVDQKHLIGQTGK  -0.112
31. HMNINVRNTGIKAVENNIINLSSDQRTFTWASNDRKLITVPFDENPYSALAAWFKTDEGIEVYQTIEKKL  -0.115
32. HMGEVEVPDLVGIEAIQAKTLLFNSDFLIKEFYDYDPTQPIGVVIRQAPEAGTTQTIGDSVTITINRA  -0.116
33. HMTKRTVKSVARKIADFNRERHRMPTYEEMLTLLAVRSKSVVHFWMNKLLQEGILEKDESGHLTFV  -0.124
34. HMELEWENYSLAGEIKTTVMLYQNRRNGLPEEAKQKADALMKQLKQAVIENDAQKVEKIDDALTALLFE  -0.15
35. HMFVGVDMAVKEEIGKEGVAFTDLRPAGKVSIGDDVYDAVSETGAFITRGTSVRVLKYQAGQVYVVK  -0.154
36. HMLAMHVVESVGGAEQFTKLQNFAKTQNADYQKMWNDTMNSGNVLAIKTMLSGIQSDMIAVQ  -0.16
37. HMRGSRIFSGDVSPLTLPANSPFFSGYTEFKPGDVYVERSATNIAMWEWKSQPGGYTWVKTADIA  -0.169
38. HMFDGTLSIYPNPSKGIFNLDLLNVKDGEYTITVDNLLGQEVYSEIRNVINSSSKTLDLSNLTKGV  -0.173
39. HMALALDDLFDRYEQLQDQSLGDKTEEGQELRAMIRAYIEQEGLSVRVTRSTTNRELLELIEQEMEG  -0.174
40. HMDGKTALQEIVASSGWSPPEYKVSESGPDHDKDFVAYAIVNGVAYPEGHGKSKREAEQVAARIAFEALSK  -0.18
41. HMDDPISSMVNRIRLAFGLSVTDLAAVLGVERPTIYSWLKDGSTPAPARLTRVRQVLSLADTW  -0.194
42. HMTGVEAIERYLASGVIPGVGPVLAKRLVERFGARTLEVIEDSPRRLTQVPGIGRQKARQIHQALKAQRE  -0.25
43. HMWNKGETKIPTQAQNELIKRRQAGATWTSLSEWLKATYGIDIHRTNIQRWYDKEVYLDQEN  -0.316
44. HMAPLATIHVSSLSQKPFYLYGTFEDRRGNHLFFLEQIMGENKSIPVAMPSSAINPKIHASLTPPKG  -0.32
45. HMKQPVPDEIYFKRLANATEALGRYPRASERKKFGLNMSKRRYPTLTDFINKAIELGYVEDFR  -0.373
46. HMVINTRHTGFVVDDLERFINFYLGLGLKLISRKVESGEYIDKLVGLKGTKLEWAKLSLPDNSMIEILKYH  -0.375
47. HMAPLADQIVDLLKEHDGFLPLHDNSSPEDIRATVGTSKKAFKQAIGGLFREKRIVIGPTGIRLIS  -0.378
48. HMDSGLEQAKTAALENAELETSQVTFIKAELDYDDGKKVYEIEFVTSAMKYEYQVKADDFSILEMSKETIE  -0.39
49. HMEEQELQLIQFPIASGSAWAGKAVRELILPPETLLVMLIRGTETMIPKGDTMVQEGDTAVLSASAYRDD  -0.434
50. HMRLPAISYSFARKHGVVLRLDGDRPVASLREGADPAILIEVKRHLDGAMGVEKVSEAAFDQLLSTTYA  -0.484
51. HMNDGEIAAPVSGTLQSFKVEDGQTVSEGDLVAVMEAMKMETQILATKGGTIRLLVKEGDYLQAGHALMTI  -0.525
52. HMGEAAIYRINILINNLNVRSGPGTLYPRLRRADFPGEYDIFEEKNGFGRISNTKSEWVSLNTQYVQRLT  -0.549
53. HMTETNSVTINERLTLYRRSRSGRWQARVKLNTGEWHRFSTGTADFEKAKESAHRELHNVGFRAENNLPQ  -0.598
54. HMDKEQVTFIFRDIDIALRSLDYPIKDIKNTLNIIKSEFSNSKSTELNEQKINFENILKEAISILENND  -0.627
55. HMNVEATAETLLALLKKNGGSLPFGDKSDPEAIQSQLKMSKKTFKKAAGTLFKKKLVRIEDHGIFL  -0.657
56. HMTYQHQSIIHRRTRGAILTAAKELLAESGISGTNMIEIADRAQVSRASLYNHFRDKHEVFLALVES  -0.677
57. HMESNWLTYAKRIQSIADTGMTFAVDDFDKERYQELADISSKMLADLSNIPIGRIENLLGPLGQ  -0.75
58. HMADTPQAYIRQMVQEAGADGIMLSTITDRLRARFKDFKVRDLGYAQMRQYMASTGTYDLEKSGRNFRVHL  -0.935
59. HMNVVDTGTDANYRVKISAVNLNMRLGPSTSYKSKGYITPGNYTIIKTSGDWGKVKETGYWVALKYTSKIN  -1.06
60. HMVLVGERRQKILEVVSSGKAVTVEELSRILHVSPSTVRRDLRFLESRGLLYRTHGGAMPPV  -1.1
61. HMYKNLRAFRESLGMTQKDFAASLSIGLSTYNGYEVGAREPKSDFWIAVARKYGVTIDYLMGFSDDPHK  -1.11
62. HMRMTTEQLMSFLKQHFPQVADNFTVRISDEGRLSVEMPVNDKHLRPGGTVSGPSMFALADVAFYLAILQ  -1.16
63. HMKNTFGLTEREMEVLALIVDGLSNPEIAEKLFITRATAKAHVHSILQKLYVDDRTQAAVTAMREGL  -1.23
64. HMLPVFNYQVYRTHGLIYVYAKDNDSFDQIARSMGFKAKQLMKFNEVPEDFPLQAGDIVYLEKKKK  -1.42
65. HMQPNVTRERILAAAMTVFAQKGWQKTSLDEVAAAAGMTKGAIYWHFRNKNDLFFALLDARLQRD  -1.97
66. HMHSFGLHVRNLRKKSNLTLSQLSNASGLSLSAISKIENNQISPSFINLIRLAEGLKMHIADLVTVK  -2.13
67. HMEKLSMLKIKELFRLAIEMNLSHRQIAQSLNVSHTVVNRYLKRFKKSNLSYETLLKLGDKEIISALYEH  -2.29
68. HMQTQYIVDTKTTLLVRTGPGKSNSQFGRLKNGETINVYAIKNGWAEISYNGKTGYVSEQYIKLA  -3.12
69. HMRIYFSPSEIGFYHESDKQAYLLAGTWPNDLLEISEKWFLYLLEGQQKGKVITVNDYDQPVLVD  -3.31
